Data from patent publication EP4499697A1 (dated 2025).

Tests used:
[1] = molecular target: T1, human FRα on cells (human, UniProt P15328 25-234); assay: cell-based or functional assay
[2] = molecular target: T1, human FRα on cells; assay: flow cytometry on IGROV-1 cells (endogenous FRα), apparent Kd

T1 sequence (P15328 25-234): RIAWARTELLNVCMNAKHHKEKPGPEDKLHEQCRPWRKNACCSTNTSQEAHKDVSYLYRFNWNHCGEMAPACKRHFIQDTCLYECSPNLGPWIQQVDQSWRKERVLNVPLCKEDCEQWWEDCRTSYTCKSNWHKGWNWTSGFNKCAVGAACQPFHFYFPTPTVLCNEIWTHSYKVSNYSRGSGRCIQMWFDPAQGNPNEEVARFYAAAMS

- internalized fluorescence relative to v30384, 25 nM, 5-hour incubation, IGROV-1 cells [1]: 0.5 fold
- Kd [2]: 0.69 nM
B1: mirvetuximab (v17716) (antibody, V domains shown)
VH: QVQLVQSGAEVVKPGASVKISCKASGYTFTGYFMNWVKQSPGQSLEWIGRIHPYDGDTFYNQKFQGKATLTVDKSSNTAHMELLSLTSEDFAVYYCTRYDGSRAMDYWGQGTTVTVSS
VL: DIVLTQSPLSLAVSLGQPAIISCKASQSVSFAGTSLMHWYHQKPGQQPRLLIYRASNLEAGVPDRFSGSGSKTDFTLTISPVEAEDAATYYCQQSREYPYTFGGGTKLEIK
